Three substances from paper PMC4773404 can be followed below.

Common to all, as to assay: SPR; Biacore T200; receptor domains amine-coupled to CM5-S Series chips; analytes 0-20 nM flowed over; 10 mM HEPES, 150 mM NaCl, 3 mM EDTA, 0.05% surfactant P20, pH 7.4; double-referenced; 1:1 Langmuir fit
(SPR reads the build-up and loss of mass on a sensor chip optically.)

Experiment [1] addresses p75NTR extracellular domain (p75NTR ECD) (UniProt P08138).
In experiment [2] the target is sortilin luminal domain (LD).
For experiment [3], the target named is SorCS2 luminal domain (LD).

What is called Kd is the concentration at which binding is half-saturated. Higher therefore signals a looser complex. The term koff denotes a measure of how fast the partners let go of each other. Higher therefore signals a short-lived complex. What is called kon is the second-order rate constant of association. Low readings indicate slow association, high ones fast association.

p75NTR extracellular domain (p75NTR ECD), sequence (P08138 29-250): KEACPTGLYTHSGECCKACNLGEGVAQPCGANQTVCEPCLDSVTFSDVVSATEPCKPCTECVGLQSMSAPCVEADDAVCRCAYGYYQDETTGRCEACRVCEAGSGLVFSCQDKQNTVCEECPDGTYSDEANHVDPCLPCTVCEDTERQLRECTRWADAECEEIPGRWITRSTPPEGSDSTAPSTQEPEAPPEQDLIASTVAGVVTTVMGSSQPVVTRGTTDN

Regarding “brain-derived neurotrophic factor (BDNF) (ligand)”, in experiment [1], the Kd was determined as 0.62 nM, the koff amounted to 0.00251 s⁻¹ and the kon stood at 4.44e+06 M⁻¹ s⁻¹. In experiment [2], this substance displayed a dissociation constant (Kd) of 6.44 nM, a dissociation rate constant (koff) of 0.0217 s⁻¹ and a kon of 3.8e+06 M⁻¹ s⁻¹.

As for “human proBDNF Met66, furin cleavage-resistant (FCR) (natural protein)”, the Kd in experiment [3] came out at 2.23 nM; in experiment [1], 2.31 nM; in experiment [2], 3.83 nM. Moreover, the koff in experiment [3] was found to be 0.00453 s⁻¹; in experiment [1], 0.00325 s⁻¹; in experiment [2], 0.00504 s⁻¹. For the same substance, the kon was 2.14e+06 M⁻¹ s⁻¹ in experiment [3], 1.55e+06 M⁻¹ s⁻¹ in experiment [1] and 1.56e+06 M⁻¹ s⁻¹ in experiment [2].

For “human proBDNF Val66, furin cleavage-resistant (FCR) (natural protein)”, in experiment [3], the Kd stood at 2.23 nM, the koff is 0.004 s⁻¹ and the kon was 1.79e+06 M⁻¹ s⁻¹. In experiment [1], this substance yielded an equilibrium dissociation constant (Kd) of 2.42 nM, a koff of 0.00394 s⁻¹ and a kon of 1.88e+06 M⁻¹ s⁻¹. Further, in experiment [2], the Kd worked out at 2.9 nM, the koff is 0.00746 s⁻¹ and the kon was 2.48e+06 M⁻¹ s⁻¹.
